Molecular target: the molecule itself
Assay: crystal structure; hanging-drop vapor diffusion, 20°C, pH 4.2, with ZnCl2 and NAD+, soaked in glycerol; space group I422, 2.0 Å; octamer by non-crystallographic 2-fold and crystallographic 4-fold symmetry

B1: Escherichia coli glycerol dehydrogenase (GDH), full-length (1-367) (enzyme, E. coli K12 MG1655, UniProt P0A9S5 1-367, looked up)
chain: MDRIIQSPGKYIQGADVINRLGEYLKPLAERWLVVGDKFVLGFAQSTVEKSFKDAGLVVEIAPFGGECSQNEIDRLRGIAETAQCGAILGIGGGKTLDTAKALAHFMGVPVAIAPTIASTDAPCSALSVIYTDEGEFDRYLLLPNNPNMVIVDTKIVAGAPARLLAAGIGDALATWFEARACSRSGATTMAGGKCTQAALALAELCYNTLLEEGEKAMLAAEQHVVTPALERVIEANTYLSGVGFESGGLAAAHAVHNGLTAIPDAHHYYHGEKVAFGTLTQLVLENAPVEEIETVAALSHAVGLPITLAQLDIKEDVPAKMRIVAEAACAEGETIHNMPGGATPDQVYAALLVADQYGQRFLQEWE
notes: glycerol dehydrogenase (GDH; EC 1.1.1.6) of E. coli K12 MG1655, full length, residues 1-367; Homo-octamer; Two protomers (Mol-A, Mol-B) lie in the asymmetric unit and the octamer is formed by crystallographic 4-fold symmetry; Crystallised with Zn2+ and NAD+ and soaked in glycerol; also called E. coli GDH; GDH^NAD∙Gly; source: E. coli BL21 (DE3), purified (Ni-IDA, size-exclusion chromatography)
  stoichiometry N: 8

Reference: publication PMC10939272, “Structural insights into the octamerization of glycerol dehydrogenase” (PLOS ONE, 2024)
